# Biological target: BPHIN 1 (wild-type HIV-1 integrase) (Human immunodeficiency virus 1, UniProt P04585 P04585:1148-1435)
# Experiment: pGL2 fragments 150-500 bp; 5 mM MnCl2, 37 C
# Settings: tags: BioProducts MD, LLC; chain copies: 4; partially double-stranded
binder,measurement,value
IN adaptor 7 (dsDNA) DNA 1: AATGATACGGCGACCACCGAGATCTACACTCTTTCCCTACACGACGCTCTTCCGATCTAGCAGT DNA 2: ACTGCT,binding result,binds
